# Measured values from paper PMC5472308, “Characterization of the regulation of a plant polysaccharide utilization operon and its role in biofilm formation in Bacillus subtilis” (PLoS ONE, 2017).
# Biological target: His6-GanR (Bacillus subtilis 3610) (UniProt O07008)
# Test: EMSA
# Details: 10 mM Tris-HCl (pH not stated), 50 mM NaCl, 1 mM EDTA, 5% glycerol, 1 mM DTT, 10 ug/ml BSA, on ice 20 min; Cy3 probes with poly-dIdC, gel 0.5X TBE at 4 C
# Sequence of His6-GanR (Bacillus subtilis 3610) (O07008 whole entry): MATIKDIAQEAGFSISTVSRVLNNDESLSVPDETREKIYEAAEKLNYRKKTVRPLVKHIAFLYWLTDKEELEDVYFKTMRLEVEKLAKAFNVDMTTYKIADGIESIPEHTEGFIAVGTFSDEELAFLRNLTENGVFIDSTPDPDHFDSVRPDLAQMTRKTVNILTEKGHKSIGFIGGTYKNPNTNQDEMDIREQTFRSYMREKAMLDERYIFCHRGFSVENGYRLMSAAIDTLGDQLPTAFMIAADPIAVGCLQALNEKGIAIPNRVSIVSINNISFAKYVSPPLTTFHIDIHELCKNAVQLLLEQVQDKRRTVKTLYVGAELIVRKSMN
sequence,measurement,value
GTACGAATTCCCGCGCTGTATTCCGGCTTGAGAACAGCTTTTGAAAAGTAAGCTGTTTGGGAAAGTTAAATAATCTTTAATTCGAGATGTTTTACTTGAAAGTAAATTTCTTTGTCTCTATAATAAAGTCTAAGAGAGACAGAATAATCATTATGCATCTGTATGATAATAATTGATGTGTGATGGATCCGTAC (double strand) [PyvaB (yvaB promoter)],binding,no binding
